Measured values: article PMC5672800 (Journal of medicinal chemistry, 2017)
Non-standard residues stand in square brackets, D forms with d. dPhe(4-I) = N[C@H](Cc1ccc(I)cc1)C(=O)O; d2Nal = N[C@H](Cc1ccc2ccccc2c1)C(=O)O; Bta = N[C@@H](Cc1csc2ccccc12)C(=O)O; Tic = O=C(O)[C@@H]1Cc2ccccc2CN1

B1: Ac-His-Arg-(pI)DPhe-Tic-NH2 (peptide)
chain: HRFX
HELM: PEPTIDE1{[ac].H.R.[O=C([C@@H](Cc1ccc(I)cc1)N[*:1])[*:2]].[Tic].[am]}$$$$V2.0
SMILES: CC(=O)N[C@@H](Cc1c[nH]cn1)C(=O)N[C@@H](CCCNC(=N)N)C(=O)N[C@H](Cc1ccc(I)cc1)C(=O)N1Cc2ccccc2C[C@H]1C(N)=O
B2: Ac-Arg-Arg-(pI)DPhe-Tic-NH2 (peptide)
chain: RRFX
HELM: PEPTIDE1{[ac].R.R.[O=C([C@@H](Cc1ccc(I)cc1)N[*:1])[*:2]].[Tic].[am]}$$$$V2.0
SMILES: CC(=O)N[C@@H](CCCNC(=N)N)C(=O)N[C@@H](CCCNC(=N)N)C(=O)N[C@H](Cc1ccc(I)cc1)C(=O)N1Cc2ccccc2C[C@H]1C(N)=O
B3: compound 25 (peptide)
peptide: RRFF
HELM: PEPTIDE1{[ac].R.R.[O=C([C@@H](Cc1ccc(I)cc1)N[*:1])[*:2]].F.[am]}$$$$V2.0
SMILES: CC(=O)N[C@@H](CCCNC(=N)N)C(=O)N[C@@H](CCCNC(=N)N)C(=O)N[C@H](Cc1ccc(I)cc1)C(=O)N[C@@H](Cc1ccccc1)C(N)=O

molecular target: T1, mouse melanocortin-3 receptor (mouse, UniProt P33033 1-323); experiment: cell-based or functional assay
T1 sequence (P33033 whole entry): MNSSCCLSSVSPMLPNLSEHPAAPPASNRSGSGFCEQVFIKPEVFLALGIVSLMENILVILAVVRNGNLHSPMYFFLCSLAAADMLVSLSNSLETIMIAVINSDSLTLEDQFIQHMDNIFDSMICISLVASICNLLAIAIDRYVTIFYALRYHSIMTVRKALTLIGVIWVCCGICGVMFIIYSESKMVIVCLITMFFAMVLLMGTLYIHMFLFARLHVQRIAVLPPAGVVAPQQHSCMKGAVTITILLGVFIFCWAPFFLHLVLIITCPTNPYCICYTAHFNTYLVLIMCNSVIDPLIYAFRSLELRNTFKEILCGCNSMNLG

Row | Binder | cAMP AlphaScreen, HEK293 cells stably expressing the receptor: agonist EC50 [µM]
1 | Ac-HR[dPhe(4-I)][Bta]-NH2 [compound 11] | 0.46
2 | Ac-RR[dPhe(4-I)][d2Nal]-NH2 [Ac-Arg-Arg-(pI)DPhe-DNal(2′)-NH2] | 0.057
3 | B1 | 0.04
4 | Ac-FR[dPhe(4-I)][Bta]-NH2 [compound 15] | 0.93
5 | Ac-RR[dPhe(4-I)][Bta]-NH2 [compound 10] | 0.16
6 | Ac-FR[dPhe(4-I)][Tic]-NH2 [compound 22] | 0.61
7 | Ac-[d2Nal]R[dPhe(4-I)][Tic]-NH2 [compound 24] | 0.6

molecular target: T2, mouse melanocortin-4 receptor (mouse, UniProt P56450 1-332); experiment: cell-based or functional assay
T2 sequence (P56450 whole entry): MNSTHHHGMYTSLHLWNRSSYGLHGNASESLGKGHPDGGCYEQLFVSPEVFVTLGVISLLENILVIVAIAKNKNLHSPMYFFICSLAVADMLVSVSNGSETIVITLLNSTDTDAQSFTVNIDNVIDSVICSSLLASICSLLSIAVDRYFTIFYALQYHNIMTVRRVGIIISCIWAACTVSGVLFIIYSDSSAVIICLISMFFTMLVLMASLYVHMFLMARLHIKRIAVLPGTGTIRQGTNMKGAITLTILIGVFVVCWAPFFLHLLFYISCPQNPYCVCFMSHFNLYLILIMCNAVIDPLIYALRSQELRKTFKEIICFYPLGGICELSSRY

Row | Binder | cAMP AlphaScreen, Schild analysis against NDP-MSH (blocks m5+m3): antagonist pA2 | cAMP AlphaScreen, HEK293 cells stably expressing the receptor: agonist EC50 [µM]
8 | Ac-HR[dPhe(4-I)][Bta]-NH2 [compound 11] | 6.4 -Log(Ki) | –
9 | Ac-RR[dPhe(4-I)][d2Nal]-NH2 [Ac-Arg-Arg-(pI)DPhe-DNal(2′)-NH2] | 6.4 -Log(Ki) | > 100
10 | B1 | 7 -Log(Ki) | > 100
11 | Ac-FR[dPhe(4-I)][Bta]-NH2 [compound 15] | 5.7 -Log(Ki) | > 100
12 | Ac-RR[dPhe(4-I)][Bta]-NH2 [compound 10] | 6.6 -Log(Ki) | –
13 | B2 | 7.8 -Log(Ki) | > 100
14 | Ac-FR[dPhe(4-I)][Tic]-NH2 [compound 22] | 6.3 -Log(Ki) | > 100
15 | Ac-[d2Nal]R[dPhe(4-I)][Tic]-NH2 [compound 24] | 6.4 -Log(Ki) | –

molecular target: mouse melanocortin-1 receptor (mouse, UniProt Q01727 1-315); experiment: cell-based or functional assay
Sequence (Q01727 whole entry): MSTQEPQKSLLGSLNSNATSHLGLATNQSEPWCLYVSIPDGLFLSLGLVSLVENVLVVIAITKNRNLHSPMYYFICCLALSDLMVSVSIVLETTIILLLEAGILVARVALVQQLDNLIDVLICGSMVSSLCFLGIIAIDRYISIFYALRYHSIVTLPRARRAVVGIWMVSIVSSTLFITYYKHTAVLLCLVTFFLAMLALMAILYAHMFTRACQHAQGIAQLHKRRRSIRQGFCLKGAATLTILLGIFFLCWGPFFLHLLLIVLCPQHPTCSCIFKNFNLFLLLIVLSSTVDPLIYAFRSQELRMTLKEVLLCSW

Row | Binder | cAMP AlphaScreen, HEK293 cells stably expressing the receptor: agonist EC50 [µM]
16 | Ac-HR[dPhe(4-I)][Bta]-NH2 [compound 11] | 0.07
17 | Ac-RR[dPhe(4-I)][d2Nal]-NH2 [Ac-Arg-Arg-(pI)DPhe-DNal(2′)-NH2] | 0.28
18 | B1 | 0.00071
19 | Ac-FR[dPhe(4-I)][Bta]-NH2 [compound 15] | 0.33
20 | B3 | 0.055
21 | Ac-RR[dPhe(4-I)][Bta]-NH2 [compound 10] | 0.056
22 | B2 | 0.00051
23 | Ac-FR[dPhe(4-I)][Tic]-NH2 [compound 22] | 0.008
24 | Ac-[d2Nal]R[dPhe(4-I)][Tic]-NH2 [compound 24] | 0.007

molecular target: mouse melanocortin-5 receptor (mouse, UniProt P41149 1-325); experiment: cell-based or functional assay
Sequence (P41149 whole entry): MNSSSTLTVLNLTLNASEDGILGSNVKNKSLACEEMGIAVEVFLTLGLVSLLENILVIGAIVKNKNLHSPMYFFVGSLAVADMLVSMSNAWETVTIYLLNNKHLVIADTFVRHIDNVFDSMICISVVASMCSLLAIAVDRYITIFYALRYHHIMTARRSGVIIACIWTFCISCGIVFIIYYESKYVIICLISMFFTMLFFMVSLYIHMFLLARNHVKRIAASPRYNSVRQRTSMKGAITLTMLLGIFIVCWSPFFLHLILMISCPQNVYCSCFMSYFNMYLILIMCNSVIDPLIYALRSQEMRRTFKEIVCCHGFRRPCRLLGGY

Row | Binder | cAMP AlphaScreen, HEK293 cells stably expressing the receptor: agonist EC50 [µM]
25 | Ac-HR[dPhe(4-I)][Bta]-NH2 [compound 11] | 0.27
26 | Ac-RR[dPhe(4-I)][d2Nal]-NH2 [Ac-Arg-Arg-(pI)DPhe-DNal(2′)-NH2] | 0.5
27 | B1 | 0.017
28 | Ac-FR[dPhe(4-I)][Bta]-NH2 [compound 15] | 1.3
29 | B3 | 0.34
30 | Ac-RR[dPhe(4-I)][Bta]-NH2 [compound 10] | 0.21
31 | Ac-H[dF]RW-NH2 [Ac-His-DPhe-Arg-Trp-NH2] | 0.003
32 | B2 | 0.0088
33 | Ac-FR[dPhe(4-I)][Tic]-NH2 [compound 22] | 0.2
34 | Ac-[d2Nal]R[dPhe(4-I)][Tic]-NH2 [compound 24] | 0.25

molecular target: T1, mouse melanocortin-3 receptor; experiment: radioligand binding

Row | Binder | IC50 [µM]
35 | Ac-RR[dPhe(4-I)][d2Nal]-NH2 [Ac-Arg-Arg-(pI)DPhe-DNal(2′)-NH2] | 0.44
36 | Ac-FR[dPhe(4-I)][Tic]-NH2 [compound 22] | 2.5

molecular target: T2, mouse melanocortin-4 receptor; experiment: radioligand binding

Row | Binder | IC50 [µM]
37 | Ac-HR[dPhe(4-I)][Bta]-NH2 [compound 11] | 0.275
38 | Ac-RR[dPhe(4-I)][d2Nal]-NH2 [Ac-Arg-Arg-(pI)DPhe-DNal(2′)-NH2] | 0.22
39 | B1 | 0.083
40 | Ac-FR[dPhe(4-I)][Bta]-NH2 [compound 15] | 0.85
41 | Ac-RR[dPhe(4-I)][Bta]-NH2 [compound 10] | 0.093
42 | B2 | 0.013
43 | Ac-FR[dPhe(4-I)][Tic]-NH2 [compound 22] | 0.135
44 | Ac-[d2Nal]R[dPhe(4-I)][Tic]-NH2 [compound 24] | 0.043
